Experimental data taken from publication doi:10.1101/2024.05.01.592117 (2024).

How the values were obtained:
[1] = molecular target: T1, 40S small ribosomal subunit (salt-washed, purified) (human, UniProt P23396 1-243); experiment: FP; 40S with eIF1 and eIF1A
[2] = molecular target: 43S preinitiation complex (40S + eIFs 1, 1A, 5, 3j, eIF2-TC and eIF3) (human, UniProt P23396 1-243; P41567 1-113; P47813 1-144; P55010 1-431; O75822 1-258; P55884 …); experiment: FP
[3] = molecular target: T1, 40S small ribosomal subunit …; experiment: FP

B1: fluorescence-labeled Pdcd4-NTD (FL-Pdcd4-NTD, residues 1-156) (domain or fragment)
chain: MDVENEQILNVNPADPDNLSDSLFSGDEENAGTEEIKNEINGNWISASSINEARINAKAKRRLRKNSSRDSGRGDSVSDSGSDALRSGLTVPTSPKGRLLDRRSRSGKGRGLPKKGGAGGKGVWGTPGQVYDVEEVDVKDPNYDDDQENCVYETVV
modifications: fluorescein-5-maleimide on the single cysteine C150
In the case of B1, the Kd [1] is reported as 71 nM, the Kd [2] is reported as ~3000 nM and the Kd [3] is reported as ~5 nM.
